Measurements: paper PMC3880350, “The mononuclear metal center of type-I dihydroorotase from aquifex aeolicus” (BMC Biochemistry, 2013)
Changes are numbered by the printed parent chain. In names and notes the source's numbering stands.

What was measured:
[1] = biological target: T1, A. aeolicus DHO-ATC complex (ATC active site) (Aquifex aeolicus, UniProt O66726); experiment: X-ray crystal structure, […] Å; type: binding; conditions: crystal soaked in 1 mM PALA, 15 mM dihydroorotate, pH 5, bisubstrate analogue, mutations only in the DHO partner
T1 construct: gene pyrB; both with 3 kDa N-terminal His tag (pRSETC), E. coli BL21(DE3); with Dihydroorotase

[2] = biological target: T2, A. aeolicus DHO-ATC complex (DHO active site) (Aquifex aeolicus, UniProt O66990, H180A/H232A); experiment: X-ray crystal structure, […] Å; type: binding; conditions: crystal soaked in 15 mM dihydroorotate, 1 mM PALA, pH 5; DHO active site with one zinc
T2 construct: gene pyrC; both subunits full length with 3 kDa N-terminal His tag (pRSETC), expressed separately in E. coli BL21(DE3), mixed equimolar, dodecamer (6 DHO + 6 ATC) isolated by gel filtration; DHO 422 residues; with Aspartate carbamoyltransferase catalytic subunit

[3] = biological target: T3, Aquifex aeolicus dihydroorotase (DHO) subunit, His180Ala/His232Ala double mutant (Aquifex aeolicus, UniProt O66990 1-422, His180Ala | His232Ala); experiment: SEC; purified subunits mixed in an equimolar ratio; complex isolated by gel filtration on a Sephacryl S-300 column; composition analysed by SDS-PAGE and ATC and DHO assays; conditions: both partners purified
T3 construct: Dihydroorotase (pyrC) of Aquifex aeolicus with His180 and His232 replaced by alanine; made by PCR on the plasmid that encodes the DHO subunit; 422 C-alpha atoms in the structure; Same construct as m1 with the two point mutations; In the crystal one zinc and dihydroorotate in the active site; also called DHO Double Mutant; mutant DHO
T3 sequence: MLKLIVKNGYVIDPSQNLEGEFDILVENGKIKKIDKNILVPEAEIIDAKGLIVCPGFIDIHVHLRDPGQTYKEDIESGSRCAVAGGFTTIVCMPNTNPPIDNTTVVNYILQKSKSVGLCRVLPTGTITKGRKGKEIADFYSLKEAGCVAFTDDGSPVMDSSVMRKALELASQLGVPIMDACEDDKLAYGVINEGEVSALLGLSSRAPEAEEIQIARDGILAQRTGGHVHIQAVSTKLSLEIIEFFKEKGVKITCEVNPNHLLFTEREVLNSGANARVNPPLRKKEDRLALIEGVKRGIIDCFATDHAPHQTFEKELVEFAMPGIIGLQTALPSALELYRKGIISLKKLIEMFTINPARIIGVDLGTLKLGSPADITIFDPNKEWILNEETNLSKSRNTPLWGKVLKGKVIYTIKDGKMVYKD

[4] = biological target: T4, Aquifex aeolicus dihydroorotase (DHO) subunit, His232Ala mutant (Aquifex aeolicus, UniProt O66990 1-422, His232Ala); experiment: as above; conditions: both partners purified
T4 construct: Dihydroorotase (pyrC) of Aquifex aeolicus with His232 replaced by alanine; made by PCR on the plasmid that encodes the DHO subunit; Same construct as m1 with the point mutation
T4 sequence: T3 sequence with A180H

[5] = biological target: T5, Aquifex aeolicus dihydroorotase (DHO) subunit, His180Ala mutant (Aquifex aeolicus, UniProt O66990 1-422, His180Ala); experiment: as above; conditions: both partners purified
T5 construct: Dihydroorotase (pyrC) of Aquifex aeolicus with His180 replaced by alanine; made by PCR on the plasmid that encodes the DHO subunit; Same construct as m1 with the point mutation
T5 sequence: T3 sequence with A232H

[6] = biological target: T6, Aquifex aeolicus dihydroorotase (DHO) subunit, wild type (Aquifex aeolicus, UniProt O66990 1-422); experiment: as above; conditions: both partners purified
T6 construct: Dihydroorotase (pyrC) of Aquifex aeolicus; gene amplified by PCR from the genome and inserted into pRSETC; One zinc ion per subunit; also called Wild Type DHO; A. aeolicus DHO
T6 sequence: T3 sequence with A180H, A232H

[7] = biological target: the molecule itself; experiment: crystal structure; DHO double mutant-ATC complex, hanging drop, room temperature, 30% ethylene glycol with barium chloride; crystals soaked in 1 mM PALA and 15 mM dihydroorotate at pH 5; 2.2 Å
[8] = substrate: O=C1C[C@@H](C(=O)O)NC(=O)N1; experiment: colorimetric carbamoyl aspartate formation, saturation curve; type: biochemical, Aquifex aeolicus
Source text: colorimetric carbamoyl aspartate formation, saturation curve on A. aeolicus DHO-ATC complex (DHO active site)

[9] = 250 mM Tris acetate (Figure 7; Methods: 50 mM), pH 8.3, 72°C, mutant DHO reconstituted with native ATC

Q: `O=C(O)C[C@H](NC(=O)CP(=O)(O)O)C(=O)O` [PALA] was tested. Which “X-ray crystal structure, 2.2 Å” value [1] did it give?
A: The value was “bisubstrate analog, N-phosphoacetyl L-aspartate (PALA) bound to the active site of the A. aeolicus ATC”.

Q: `O=C1C[C@@H](C(=O)O)NC(=O)N1` [dihydroorotate] was tested. Which “X-ray crystal structure, 2.2 Å” value [2] did it give?
A: Its value is “one DHO subunit with one zinc atom and dihydroorotate in its active site”.

B1: Aquifex aeolicus aspartate transcarbamoylase (ATC) subunit (enzyme)
chain: MRSLISSLDLTREEVEEILKYAKEFKEGKEETIKASAVLFFSEPSTRTRLSFEKAARELGIETYLVSGSESSTVKGESFFDTLKTFEGLGFDYVVFRVPFVFFPYKEIVKSLNLRLVNAGDGTHQHPSQGLIDFFTIKEHFGEVKDLRVLYVGDIKHSRVFRSGAPLLNMFGAKIGVCGPKTLIPRDVEVFKVDVFDDVDKGIDWADVVIWLRLQKERQKENYIPSESSYFKQFGLTKERFEKVKLYMHPGPVNRNVDIDHELVYTEKSLIQEQVKNGIPVRKAIYKFLWT
notes: Aspartate transcarbamoylase (pyrB) of Aquifex aeolicus; gene amplified by PCR from the genome and inserted into pRSETC; 291 residues superposed in the structure; also called native ATC; pyrB product
Q: Does B1 bind [3]?
A: Result: binds

Q: Does B1 bind [4]?
A: Result: binds

Q: Does B1 bind [5]?
A: Result: binds

Q: Does B1 bind [6]?
A: Result: binds

Q: And the “stoichiometry N” value [7]?
A: Its value is 3.

B2: A. aeolicus DHO-ATC complex (DHO active site) (Aquifex aeolicus VF5) (protein)
chain: T3 sequence with A180H, A232H
notes: both subunits full length with 3 kDa N-terminal His tag (pRSETC), expressed separately in E. coli BL21(DE3), mixed equimolar, dodecamer (6 DHO + 6 ATC) isolated by gel filtration; DHO 422 residues; with Aspartate carbamoyltransferase catalytic subunit
Q: B2 was tested. Which Km ([8]; no exogenous zinc, 250 mM Tris acetate (Figure 4; Methods: 50 mM), pH 8.3, 75°C (Figure 4: 72°C), DHO reverse direction (hydrolysis)) did it give?
A: Its Km is 1520 ± 300 µM.

B3: A. aeolicus DHO-ATC complex (DHO active site) (Aquifex aeolicus VF5; H180A/H232A) (protein)
chain: T3 sequence
notes: as for B2
Q: How did the Km [8, 9] turn out when B3 was run?
A: Its Km is 1550 ± 300 µM.

B4: A. aeolicus DHO-ATC complex (DHO active site) (Aquifex aeolicus VF5; H180A) (protein)
chain: T3 sequence with A232H
notes: as for B2
Q: Which Km [8, 9] does the source give for B4 here?
A: Its Km is 1650 ± 260 µM.

B5: A. aeolicus DHO-ATC complex (DHO active site) (Aquifex aeolicus VF5; H232A) (protein)
chain: T3 sequence with A180H
notes: as for B2
Q: With B5 as the molecule, how does the Km [8, 9] read?
A: Its Km is 1340 ± 220 µM.
